This passage reports % IFN-γ+/mTCRβ- cells, intracellular IFN-γ by flow cytometry results from patent US20230203124A1.

For assay [1], the target named is mutated ERBB2IP 25-AA long peptide presented by HLA-DQB1*0601 (human).
Assay [2] deals with mutated ALK 25-AA long peptide on autologous B cells (HLA-DQB1*0601) (human).
Assay [3] has as its target wild-type ERBB2IP 25-AA long peptide on autologous B cells (HLA-DQB1*0601) (human).

Consider “Mock-transduced autologous open-repertoire peripheral blood T cells (cells without a defined receptor)”, for which the % IFN-γ+/mTCRβ- cells, intracellular IFN-γ by flow cytometry in assay [1] came out at 0%; in assay [2], 1%; in assay [3] it was 0%.
